Laboratory results as given in publication PMC8091058, “Distinct intramolecular interactions regulate autoinhibition of vinculin binding in αT-catenin and αE-catenin” (The Journal of Biological Chemistry, 2021).

What was measured:
[1] = biological target: T1, αT-catenin N2-M3 (aa 147–626) (Mus musculus, UniProt Q65CL1 147-626); experiment: ITC; vinculin D1 injected into αT-catenin or αE-catenin fragment (or αT-catenin head–β-catenin complex) in the cell; 25 °C; 20 mM Hepes pH 8.0, 150 mM NaCl, 1 mM TCEP; conditions: both partners purified
T1 construct: αT-catenin, Mus musculus, N2-M3, aa 147-626; in pGEX-TEV; also called αT-catenin N2-M3 (147–626); source: E. coli BL21-Gold, purified (glutathione-agarose, TEV cleavage, Mono Q or Mono S, S200)
T1 sequence (looked up): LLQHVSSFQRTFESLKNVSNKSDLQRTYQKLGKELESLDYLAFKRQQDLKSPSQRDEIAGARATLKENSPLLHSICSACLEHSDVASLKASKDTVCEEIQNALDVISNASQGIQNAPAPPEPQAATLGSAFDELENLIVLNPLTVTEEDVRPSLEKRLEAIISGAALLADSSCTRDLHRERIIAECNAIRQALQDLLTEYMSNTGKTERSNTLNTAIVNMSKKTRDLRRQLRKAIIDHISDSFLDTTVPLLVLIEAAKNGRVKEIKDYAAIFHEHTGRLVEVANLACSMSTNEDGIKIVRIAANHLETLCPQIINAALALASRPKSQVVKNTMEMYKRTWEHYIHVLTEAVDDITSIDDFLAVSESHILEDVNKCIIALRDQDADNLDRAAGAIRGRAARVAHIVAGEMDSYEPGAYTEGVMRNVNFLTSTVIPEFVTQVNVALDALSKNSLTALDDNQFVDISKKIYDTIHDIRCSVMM

[2] = biological target: T2, αT-catenin M1-M3 (aa 260–626) (Mus musculus, UniProt Q65CL1 260-626); experiment: as above; conditions: both partners purified
T2 construct: αT-catenin, Mus musculus, M1-M3, aa 260-626; in pGEX-TEV; also called αT-catenin M-region; αT-catenin M1-M3 (260–626); source: E. coli BL21-Gold, purified (glutathione-agarose, TEV cleavage, Mono Q or Mono S, S200)
T2 sequence (looked up): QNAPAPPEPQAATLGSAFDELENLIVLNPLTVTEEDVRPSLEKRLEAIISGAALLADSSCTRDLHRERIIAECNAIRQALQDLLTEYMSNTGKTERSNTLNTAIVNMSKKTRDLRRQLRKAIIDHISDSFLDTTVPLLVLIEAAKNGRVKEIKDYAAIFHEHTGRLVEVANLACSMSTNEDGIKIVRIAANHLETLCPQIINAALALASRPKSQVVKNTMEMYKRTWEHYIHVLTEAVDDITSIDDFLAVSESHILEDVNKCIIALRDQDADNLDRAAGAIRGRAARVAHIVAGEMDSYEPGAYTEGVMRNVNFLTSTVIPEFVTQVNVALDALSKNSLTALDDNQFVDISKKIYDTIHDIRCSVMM

[3] = biological target: T2, αT-catenin M1-M3 (aa 260–626); experiment: ITC; vinculin D1 titrated into an equimolar mixture of αT-catenin N1-N2 and M1-M3; 25 °C; 20 mM Hepes pH 8.0, 150 mM NaCl, 1 mM TCEP; conditions: both partners purified
[4] = biological target: 2I27–αT-catenin M1-M3 (aa 259–667)-2I27 (UniProt Q65CL1); experiment: ITC; vinculin D1 injected into αT-catenin or αE-catenin fragment (or αT-catenin head–β-catenin complex) in the cell; 25 °C; 20 mM Hepes pH 8.0, 150 mM NaCl, 1 mM TCEP

B1: vinculin D1 (aa 1–259) (domain or fragment, UniProt P12003 1-259, looked up)
chain: MPVFHTRTIESILEPVAQQISHLVIMHEEGEVDGKAIPDLTAPVSAVQAAVSNLVRVGKETVQTTEDQILKRDMPPAFIKVENACTKLVRAAQMLQADPYSVPARDYLIDGSRGILSGTSDLLLTFDEAEVRKIIRVCKGILEYLTVAEVVETMEDLVTYTKNLGPGMTKMAKMIDERQQELTHQEHRVMLVNSMNTVKELLPVLISAMKIFVTTKNTKSQGIEEALKNRNFTVEKMSAEINEIIRVLQLTSWDEDAWA
notes: vinculin D1 fragment, aa 1-259, the first 2 four-helix bundles; in pGEX-TEV; also called vinculin aa 1 to 259 (D1); vinculin N-terminus; source: E. coli BL21-Gold, purified (glutathione-agarose, TEV cleavage, Mono Q or Mono S, S200)
What does the source list for B1?
Kd [1]: 50.2 ± 40.4 nM; dH [1]: 4 ± 0.1 kcal/mol; Kd [2]: 60.5 ± 19.2 nM; dH [2]: -2.2 ± 1 kcal/mol; Kd [3]: 50.1 ± 17.5 nM; dH [3]: -3.1 ± 0.1 kcal/mol; Kd [4]: 245 nM; dH [4]: 4.8 kcal/mol
